Experimental findings from article PMC6040593 (Molecular cell, 2017) are described below.

Residue numbers refer to the chain shown, from its start. In names and notes the source's numbering stands.

As usually defined, the stoichiometry N is a count of units in the complex or per binding partner.

In data set [1] the target is T1, soluble region of S. cerevisiae Msp1 (Δ1-32), wild type (S. cerevisiae), P28737.
T1 chain: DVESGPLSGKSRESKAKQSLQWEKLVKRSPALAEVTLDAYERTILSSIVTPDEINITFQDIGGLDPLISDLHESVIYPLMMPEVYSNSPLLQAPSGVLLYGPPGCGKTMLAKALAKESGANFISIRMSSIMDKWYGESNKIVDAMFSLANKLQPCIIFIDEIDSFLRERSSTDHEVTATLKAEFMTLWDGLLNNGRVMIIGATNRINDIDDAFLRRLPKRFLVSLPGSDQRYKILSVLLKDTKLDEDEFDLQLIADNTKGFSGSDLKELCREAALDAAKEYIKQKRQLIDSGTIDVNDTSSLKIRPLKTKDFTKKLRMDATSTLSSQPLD
The data set is described as follows: SEC + SEC-MALS. The conditions noted are these: remark: other sources report otherwise.

The target of data set [2] is T1, soluble region of S. cerevisiae Msp1 …. The data set is described as follows: SEC + SEC-MALS. The following applies: remark: other sources report otherwise. A general note: Size exclusion chromatography separates by hydrodynamic size, large species first.
The data set “SEC + SEC-MALS” concerns the molecule itself. The data set is described as follows: SEC + SEC-MALS.
The data set “SEC” deals with the molecule itself. The data set is described as follows: SEC.

B1: soluble region of S. cerevisiae Msp1 (Δ1-32), wild type, P28737 33-362 (domain or fragment)
chain: T1 chain
As for B1, the stoichiometry N was determined as 2 in data set [1] and 6 in data set [2].

B2: soluble (Δ1-32) S. cerevisiae Msp1 E193Q (domain or fragment, UniProt P28737 33-362, looked up)
chain: T1 chain with E161Q
For the molecule B2, the “stoichiometry N” value in the data set “SEC + SEC-MALS” turned out to be 6.

B3: soluble (Δ1-32) S. cerevisiae Msp1 E193Q W166A/Y167A (domain or fragment, UniProt P28737 33-362, looked up)
chain: T1 chain with W134A, Y135A, E161Q
Take B3: the “stoichiometry N” value in the data set “SEC” was determined as 6.

B4: soluble (Δ1-32) S. cerevisiae Msp1 E193Q H206A/E207A (domain or fragment, UniProt P28737 33-362, looked up)
chain: T1 chain with E161Q, H174A, E175A
With B4, in the data set “SEC”, the “stoichiometry N” value amounted to 6.
